Where “and” joins values, the source holds several entries; their conditions need not be identical. Identical values can stand only once. Entries after “also recorded” stand apart in the source; their conditions may differ. Residues, ends and D or L forms follow the SMILES beside them. No end group written: not given here. *: point of attachment. 5FAM = O=C1OC2(c3ccc(O)cc3Oc3cc(O)ccc32)c2ccc(C(=O)*)cc21
T1: Redβ (Escherichia phage lambda, UniProt P03698)
T1 sequence (P03698 1-261): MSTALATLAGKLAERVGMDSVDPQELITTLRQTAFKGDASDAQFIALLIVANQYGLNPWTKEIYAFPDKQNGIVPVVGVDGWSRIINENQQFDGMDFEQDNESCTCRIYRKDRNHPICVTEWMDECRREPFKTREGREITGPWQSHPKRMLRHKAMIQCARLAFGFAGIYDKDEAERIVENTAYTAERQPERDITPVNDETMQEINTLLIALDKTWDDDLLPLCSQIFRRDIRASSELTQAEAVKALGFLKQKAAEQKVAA

T2: λ Exo – Redβ complex (Escherichia phage lambda, UniProt P03698)
T2 sequence (P03698 1-261): T1 sequence (P03698 1-261)

T3: 6His-tagged Escherichia coli exonuclease I (Escherichia coli, UniProt P04995 1-475)
T3 sequence: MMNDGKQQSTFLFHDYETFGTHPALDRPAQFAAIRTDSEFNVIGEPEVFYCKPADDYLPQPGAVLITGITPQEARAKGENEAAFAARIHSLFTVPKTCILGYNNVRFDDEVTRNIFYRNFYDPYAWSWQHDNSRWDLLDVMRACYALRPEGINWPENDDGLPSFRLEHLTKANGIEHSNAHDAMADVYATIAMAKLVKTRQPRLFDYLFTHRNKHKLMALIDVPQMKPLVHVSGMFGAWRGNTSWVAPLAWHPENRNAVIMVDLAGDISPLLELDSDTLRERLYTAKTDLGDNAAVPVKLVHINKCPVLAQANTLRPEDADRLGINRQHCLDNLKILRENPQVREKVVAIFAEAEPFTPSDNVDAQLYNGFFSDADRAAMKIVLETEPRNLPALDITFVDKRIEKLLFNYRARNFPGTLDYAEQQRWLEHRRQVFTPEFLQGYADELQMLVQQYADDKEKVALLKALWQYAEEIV

T4: complex of λ Exo and full-length untagged Redβ (bacteriophage λ, UniProt P03697;P03698)
T4 sequence 1: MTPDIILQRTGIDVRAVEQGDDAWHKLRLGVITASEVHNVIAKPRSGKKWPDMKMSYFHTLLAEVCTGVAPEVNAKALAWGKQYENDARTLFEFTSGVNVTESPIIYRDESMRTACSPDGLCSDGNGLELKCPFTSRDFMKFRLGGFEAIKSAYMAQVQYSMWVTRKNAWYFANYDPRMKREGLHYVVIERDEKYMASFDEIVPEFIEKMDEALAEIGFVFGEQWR
T4 sequence 2: T1 sequence (P03698 1-261)

T5: Redβ, full-length, untagged (wild type) (bacteriophage λ, UniProt P03698 1-261)
T5 sequence: T1 sequence (P03698 1-261)

B1: Redβ C-terminal domain (residues 183-261) (domain or fragment)
chain: AYTAERQPERDITPVNDETMQEINTLLIALDKTWDDDLLPLCSQIFRRDIRASSELTQAEAVKALGFLKQKAAEQKVAA
B2: λ Exonuclease, full-length, untagged (enzyme)
chain: T4 sequence 1
B3: Redβ^1–250: variant of Redβ lacking the C-terminal 11 residues (protein)
chain: MSTALATLAGKLAERVGMDSVDPQELITTLRQTAFKGDASDAQFIALLIVANQYGLNPWTKEIYAFPDKQNGIVPVVGVDGWSRIINENQQFDGMDFEQDNESCTCRIYRKDRNHPICVTEWMDECRREPFKTREGREITGPWQSHPKRMLRHKAMIQCARLAFGFAGIYDKDEAERIVENTAYTAERQPERDITPVNDETMQEINTLLIALDKTWDDDLLPLCSQIFRRDIRASSELTQAEAVKALGFL
B4: YbcN: Orf homolog from E. coli cryptic prophage DLP12 (protein, UniProt Q47269 1-151, looked up)
Uncharacterized protein YbcN: MNLSQDGIKLHRGNFTAIGRQIQPYLEEGKCFRMVLKPWREKRSLSQNALSHMWYSEISEYLISRGKTFATPAWVKDALKHTYLGYETKDLVDVVTGDITTIQSLRHTSDLDTGEMYVFLCKVEAWAMNIGCHLTIPQSCEFQLLRDKQEA

Legend:
Redβ = target: T1, Redβ; experiment: Fluorescence anisotropy binding of SSB-Ct peptide to Redβ; parameters: species or system Bacteriophage λ; conditions: 20 nM FAM-WMDFDDDIPA, full-length Redβ, pH 7.5, 25°C
λ Exo – Redβ complex = target: T2, λ Exo – Redβ complex; experiment: Fluorescence anisotropy binding of SSB-Ct peptide to λ Exo–Redβ complex; parameters: species or system Bacteriophage λ
λ Exo = conditions: Ni-spin pull down; cited from earlier work
[1] = target: B2; experiment: crystal structure
ssDNA or dsDNA = conditions: cited from earlier work
[2] = target: T3, 6His-tagged Escherichia coli …; experiment: fluorescence polarisation
[3] = target: T4, complex of λ Exo and full-length …; experiment: fluorescence polarisation
[4] = target: T5, Redβ, full-length, untagged (wild type); experiment: fluorescence polarisation
crystal structure = target: the molecule itself; experiment: crystal structure
[5] = cited from earlier work
[6] = cited from earlier work; remark: listed apart in the source
SSB = conditions: cited from earlier work

FAM-WMDFDDDIPA [SSB-Ct peptide with the F177A mutation]
binding of F177A SSB-Ct peptide to Redβ (Redβ): completely failed to interact; also recorded: fails to bind

CC[C@H](C)[C@H](NC(=O)[C@H](CC(=O)O)NC(=O)[C@H](CC(=O)O)NC(=O)[C@H](CC(=O)O)NC(=O)[C@H](Cc1ccccc1)NC(=O)[C@H](CC(=O)O)NC(=O)[C@H](CCSC)NC(=O)[C@H](Cc1c[nH]c2ccccc12)NC(=O)c1ccc2c(c1)C(=O)OC21c2ccc(O)cc2Oc2cc(O)ccc21)C(=O)N1CCC[C@H]1C(=O)N[C@@H](Cc1ccccc1)C(=O)O [SSB-Ct, FAM-WMDFDDDIPF] (5FAM-WMDFDDDIPF-OH)
Kd (λ Exo – Redβ complex): 12.8 ± 3.5 µM

B1
interaction with λ Exo (λ Exo): clear interaction
binding result [1]: binds
interaction with ssDNA or dsDNA (ssDNA or dsDNA): no interaction with ssDNA or dsDNA

{FAM}-WMDFDDDIPF [SSB C-terminal peptide, fluorescein-labeled (FAM-WMDFDDDIPF)]
Kd [2]: 0.098 µM
Kd [3]: 12.8 µM and 12 µM
Kd [4]: 10.6 µM

B2
stoichiometry N (crystal structure): 3

B3
dsDNA recombination [5]: completely disrupts
ssDNA recombination [6]: completely disrupts
interaction with λ Exo (λ Exo): completely disrupts the interaction with λ Exo

B4
requirement of SSB C-tail for interaction with SSB (SSB): does require the C-tail for its interaction with SSB
